Our source for the OD value values is patent US20260117202A1.

Assay [1] deals with FHS-65 (RSV strain A2) (UniProt P03420). The assay can be described thus: sandwich ELISA, AM14 coated, supernatant 1:10. On the technique in general: ELISA stands for enzyme-linked immunosorbent assay.
Assay [2] deals with FHS-1 (RSV strain A2) (UniProt P03420). The assay can be described thus: sandwich ELISA, AM14 coated, supernatant 1:10.
In assay [3] the target is FHS-98 (RSV strain A2) (UniProt P03420). The experiment in a line: sandwich ELISA, AM14 coated, supernatant 1:10.
The target in assay [4] is FHS-75 (RSV strain A2) (UniProt P03420). The experiment in a line: sandwich ELISA, AM14 coated, supernatant 1:10.
The target in assay [5] is FHS-73 (RSV strain A2) (UniProt P03420). The experiment in a line: sandwich ELISA, AM14 coated, supernatant 1:10.
Assay [6] deals with FHM-3 (RSV strain A2) (UniProt P03420). The experiment in a line: sandwich ELISA, AM14 coated, supernatant 1:10.
For assay [7], the target named is FHS-95 (RSV strain A2) (UniProt P03420). The experiment in a line: sandwich ELISA, AM14 coated, supernatant 1:10.
For assay [8], the target named is FHS-12 (RSV strain A2) (UniProt P03420). The assay can be described thus: sandwich ELISA, AM14 coated, supernatant 1:10.
Assay [9] deals with FHS-88 (RSV strain A2) (UniProt P03420). The assay can be described thus: sandwich ELISA, AM14 coated, supernatant 1:10.
Assay [10] concerns the target FHM-2 (RSV strain A2) (UniProt P03420). The experiment in a line: sandwich ELISA, AM14 coated, supernatant 1:10.
Assay [11] has as its target FHS-24 (RSV strain A2) (UniProt P03420). The experiment in a line: sandwich ELISA, AM14 coated, supernatant 1:10.
In assay [12] the target is FHS-87 (RSV strain A2) (UniProt P03420). The assay can be described thus: sandwich ELISA, AM14 coated, supernatant 1:10.
The target in assay [13] is FHS-89 (RSV strain A2) (UniProt P03420). The assay can be described thus: sandwich ELISA, AM14 coated, supernatant 1:10.
Assay [14] concerns the target FHS-94 (RSV strain A2) (UniProt P03420). The experiment in a line: sandwich ELISA, AM14 coated, supernatant 1:10.
Assay [15] has as its target FHS-70 (RSV strain A2) (UniProt P03420). The experiment in a line: sandwich ELISA, AM14 coated, supernatant 1:10.
In assay [16] the target is FHS-92 (RSV strain A2) (UniProt P03420). The assay can be described thus: sandwich ELISA, AM14 coated, supernatant 1:10.
For assay [17], the target named is FHS-79 (RSV strain A2) (UniProt P03420). The experiment in a line: sandwich ELISA, AM14 coated, supernatant 1:10.
Assay [18] concerns the target FHS-17 (RSV strain A2) (UniProt P03420). The assay can be described thus: sandwich ELISA, AM14 coated, supernatant 1:10.
For assay [19], the target named is FHS-23 (RSV strain A2) (UniProt P03420). The assay can be described thus: sandwich ELISA, AM14 coated, supernatant 1:10.
The target of assay [20] is FHS-38 (RSV strain A2) (UniProt P03420). The experiment in a line: sandwich ELISA, AM14 coated, supernatant 1:10.
For assay [21], the target named is FHM-7 (RSV strain A2) (UniProt P03420). The experiment in a line: sandwich ELISA, AM14 coated, supernatant 1:10.
The target of assay [22] is FHS-26 (RSV strain A2) (UniProt P03420). The assay can be described thus: sandwich ELISA, AM14 coated, supernatant 1:10.
The target in assay [23] is FHS-56 (RSV strain A2) (UniProt P03420). The experiment in a line: sandwich ELISA, AM14 coated, supernatant 1:10.
Assay [24] deals with FHM-12 (RSV strain A2) (UniProt P03420). The assay can be described thus: sandwich ELISA, AM14 coated, supernatant 1:10.
The target in assay [25] is FHS-8 (RSV strain A2) (UniProt P03420). The assay can be described thus: sandwich ELISA, AM14 coated, supernatant 1:10.
The target in assay [26] is FHS-43 (RSV strain A2) (UniProt P03420). The assay can be described thus: sandwich ELISA, AM14 coated, supernatant 1:10.
For assay [27], the target named is FHM-4 (RSV strain A2) (UniProt P03420). The experiment in a line: sandwich ELISA, AM14 coated, supernatant 1:10.
In assay [28] the target is FHS-54 (RSV strain A2) (UniProt P03420). The experiment in a line: sandwich ELISA, AM14 coated, supernatant 1:10.
Assay [29] concerns the target FHCS-1 (RSV strain A2) (UniProt P03420). The assay can be described thus: ELISA; F coated 5000 ng/ml; stored -80° C.
For assay [30], the target named is FHCS-4 (RSV strain A2) (UniProt P03420). The experiment in a line: ELISA; F coated 5000 ng/ml; stored -80° C.
Assay [31] addresses FHCS-2 (RSV strain A2) (UniProt P03420). The assay can be described thus: ELISA; F coated 5000 ng/ml; stored -80° C.
In assay [32] the target is FHCS-1 (RSV strain A2) (UniProt P03420). The assay can be described thus: ELISA; F coated 625 ng/ml; stored -80° C.
For assay [33], the target named is FHCS-4 (RSV strain A2) (UniProt P03420). The experiment in a line: ELISA; F coated 625 ng/ml; stored -80° C.
Assay [34] has as its target FHCS-2 (RSV strain A2) (UniProt P03420). The assay can be described thus: ELISA; F coated 625 ng/ml; stored -80° C.
For assay [35], the target named is FHCS-1 (RSV strain A2) (UniProt P03420). The experiment in a line: ELISA; F coated 78.13 ng/ml; stored 37° C. 4 W.
Assay [36] addresses FHCS-4 (RSV strain A2) (UniProt P03420). The experiment in a line: ELISA; F coated 78.13 ng/ml; stored 37° C. 4 W.
The target of assay [37] is FHCS-2 (RSV strain A2) (UniProt P03420). The experiment in a line: ELISA; F coated 78.13 ng/ml; stored 37° C. 4 W.
Assay [38] concerns the target FHCS-1 (RSV strain A2) (UniProt P03420). The assay can be described thus: ELISA; F coated 156.3 ng/ml; stored -80° C.
The target of assay [39] is FHCS-4 (RSV strain A2) (UniProt P03420). The assay can be described thus: ELISA; F coated 156.3 ng/ml; stored -80° C.
Assay [40] deals with FHCS-2 (RSV strain A2) (UniProt P03420). The experiment in a line: ELISA; F coated 156.3 ng/ml; stored -80° C.

Where “and” joins values, the source holds several entries; their conditions need not be identical. Equal entries are not always repeated.

For AM14 monoclonal antibody, the OD value in [1] was found to be 1.73 OD; in assay [2], 2.03 OD; in [3], 0.007 OD; in assay [4], 0.028 OD; in assay [5], 0.016 OD; in [6] it was 0.07 OD. Moreover, the OD value in [7] was 0.007 OD; in [8], 1.24 OD; in [9], 2.3 OD; in assay [10] it was 2.23 OD; in assay [11] it was 0.01 OD; in assay [12], 0.239 OD. The OD value in assay [13] turned out to be 0.006 OD; in [14], 0.009 OD; in assay [15] it was 0.007 OD; in [16], 0.012 OD; in assay [17], 0.008 OD; in assay [18] it was 0.009 OD. The OD value in assay [19] was 0.008 OD; in assay [20], 0.008 OD; in assay [21] it was 0.007 OD; in assay [22], 0.841 OD; in assay [23], 0.009 OD; in [24] it was 2.13 OD. Further, the OD value in assay [25] was 0.013 OD; in assay [26] it was 0.006 OD; in [27], 0.028 OD; in assay [28] it was 0.012 OD; in assay [29], 0.158 OD and 0.167 OD; in assay [30], 0.404 OD and 0.294 OD. Moreover, the OD value in [31] is 0.203 OD and 0.382 OD; in assay [32], 0.004 OD and 0.007 OD; in assay [33], 0.005 OD and 0.006 OD; in assay [34], 0.008 OD.

Regarding Synagis® (antibody), the OD value in [35] was 0.025 OD and 0.032 OD; in assay [36], 0.019 OD and 0.025 OD; in [37] it was 0.03 OD and 0.028 OD; in assay [38], 0.021 OD and 0.019 OD; in assay [39], 0.016 OD; in assay [40], 0.043 OD and 0.038 OD.
